Residue numbers refer to the chain shown, from its start. Where only a bound is given, the exact number is not on record here.

The labels stand for the following.
B1: ADT1-7 (parental) (antibody, IgG1, V domains shown)
VH: QVQLVESGGGLVKPGGSLRLSCAASGFTFSDYYMSWIRQAPGKGLEWVSYISSSGSTIYYADSVKGRFTISRDNAKNSLYLQMNSLRAEDTAVYYCARVDYADAFDIWGQGTLVTVSS
VL: DIQMTQSPSSLSASVGDRVTIACRAGQSIGTYLNWYQQKPGKAPKLLIYVASSLQSGVPSRFSGSGSGTEFTLTISSLQPEDFATYYCQQSYSTLLTFGRGTKVEIK
notes: IgG1; also called E07; 1245_P01_E07
B2: ADT1-7-20 (antibody, IgG1, V domains shown)
VH: B1 VH with Q1E, A102Q, D103E
VL: B1 VL with T94G, L96D
notes: IgG1
B3: ADT1-7-61 (antibody, IgG1, V domains shown)
VH: B1 VH with Q1E, V99D, A102D
VL: B1 VL with Y92A, T94E
notes: IgG1
B4: ADT1-7-3 (antibody, IgG1, V domains shown)
VH: B1 VH with Q1E, D100S, D103E
VL: B1 VL with T94G, L96D
notes: IgG1
B5: ADT1-4-6/ADT3-2 (bispecific antibody, V domains shown)
VH: EVQLQQSGPGLVKPSQTLSLTCAISGDSVSSKSAAWNWIRQSPSRGLEWLGRTYYRSKWSTDYAASVKSRITINPDTSKNQLSLQLNSVTPEDTAVYYCARTWAGYPDVWGQGTLVTVSS
VL: DIQMTQSPPALSASVGDRVTITCRASQDINDWLAWYQHKPGKAPKLLIYDASSLESGVPLRFSGSGSGTEFTLTISSLQPDDFATYYCQQKYKTPQVTFGQGTRLEIK
notes: mAb2, human IgG1; light constant region not tied; also called ADT1-4-6 × LEE
B6: ADT1-4-138/ADT3-2 (bispecific antibody, V domains shown)
VH: B5 VH with G105D, P107V
VL: B5 VL with L60S, K91R, K93S, P95D
notes: mAb2, human IgG1; light constant region not tied; also called ADT1-4-138 × LEE; ADT1-4-138xADT3-2
B7: ADT1-4/ADT3-1 (bispecific antibody, human IgG1, V domains shown)
VH: B5 VH with E1Q, A104S, P107V
VL: DIQMTQSPPALSASVGDRVTITCRASQDINDWLAWYQHKPGKAPKLLIYDASSLESGVPSRFSGSGSGTEFTLTISSLQPDDFATYYCQQSYSTPQVTFGQGTRLEIKR
notes: mAb2; also called G04 × FS1-67; G04 FS1-67
B8: ADT1-4-2/ADT3-6 (bispecific antibody)
heavy: EVQLQQSGPGLVKPSQTLSLTCAISGDSVSSKSAAWNWIRQSPSRGLEWLGRTYYRSKWSTDYAASVKSRITINPDTSKNQLSLQLNSVTPEDTAVYYCARTWVGYVDRWGQGTLVTVSSASTKGPSVFPLAPSSKSTSGGTAALGCLVKDYFPEPVTVSWNSGALTSGVHTFPAVLQSSGLYSLSSVVTVPSSSLGTQTYICNVNHKPSNTKVDKKVEPKSCDKTHTCPPCPAPELAGAPSVFLFPPKPKDTLMISRTPEVTCVVVDVSHEDPEVKFNWYVDGVEVHNAKTKPREEQYNSTYRVVSVLTVLHQDWLNGKEYKCKVSNKALPAPIEKTISKAKGQPREPQVYTLPPSRDELEEGPVSLTCLVKGFYPSDIAVEWESNGQPENNYKTTPPVLDSDGSFFLYSKLTVSYWRWYKGNVFSCSVMHEALHNHYTQKSLSLSPG
light: DIQMTQSPPALSASVGDRVTITCRASQDINDWLAWYQHKPGKAPKLLIYDASSLESGVPLRFSGSGSGTEFTLTISSLQPDDFATYYCQQKYSAPQVTFGQGTRLEIKRTVAAPSVFIFPPSDEQLKSGTASVVCLLNNFYPREAKVQWKVDNALQSGNSQESVTEQDSKDSTYSLSSTLTLSKADYEKHKVYACEVTHQGLSSPVTKSFNRGEC
notes: mAb2; also called ADT1-4-2xLEE2
B9: ADT1-4-2/ADT3-1 (bispecific antibody)
heavy: B8 heavy with L361T, E362D, E363D, N387T, G388Y, Q389G
light: B8 light
notes: mAb2; also called ADT1-4-2xFS1-67
B10: ADT1-4-2/ADT3-3 (bispecific antibody, human IgG1, kappa)
heavy: EVQLQQSGPGLVKPSQTLSLTCAISGDSVSSKSAAWNWIRQSPSRGLEWLGRTYYRSKWSTDYAASVKSRITINPDTSKNQLSLQLNSVTPEDTAVYYCARTWVGYVDRWGQGTLVTVSSASTKGPSVFPLAPSSKSTSGGTAALGCLVKDYFPEPVTVSWNSGALTSGVHTFPAVLQSSGLYSLSSVVTVPSSSLGTQTYICNVNHKPSNTKVDKKVEPKSCDKTHTCPPCPAPELAGAPSVFLFPPKPKDTLMISRTPEVTCVVVDVSHEDPEVKFNWYVDGVEVHNAKTKPREEQYNSTYRVVSVLTVLHQDWLNGKEYKCKVSNKALPAPIEKTISKAKGQPREPQVYTLPPSRDELDEGGPVSLTCLVKGFYPSDIAVEWESTYGPENNYKTTPPVLDSDGSFFLYSKLTVSYWRWVKGNVFSCSVMHEALHNHYTQKSLSLSPG
light: B8 light
notes: also called ADT1-4-2xFS1-65
B11: ADT1-4-2/ADT3-4 (bispecific antibody)
heavy: B8 heavy with L361T, E363S, A381V, N387K, G388F, Q389G, Y417N, W418L, Y421T, N424H
light: B8 light
notes: mAb2; also called ADT1-4-2x747
B12: ADT1-4-2/ADT3-7 (bispecific antibody)
heavy: B8 heavy with N387T, G388Y, Q389G, Y421Q, K422Q
light: B8 light
notes: mAb2; also called ADT1-4-2xLEE3

T2 sequence (main, as listed by the source): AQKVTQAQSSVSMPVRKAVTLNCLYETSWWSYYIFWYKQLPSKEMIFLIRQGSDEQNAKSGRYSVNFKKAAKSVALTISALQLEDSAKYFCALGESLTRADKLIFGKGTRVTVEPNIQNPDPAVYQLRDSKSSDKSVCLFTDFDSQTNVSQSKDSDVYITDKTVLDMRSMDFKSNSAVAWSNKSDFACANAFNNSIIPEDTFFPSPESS

The first test deals with T1, Vδ1 TCR on human Vδ1-positive γδ T cells (human, UniProt A0A1B0GX56 22-115).
T1 construct: also called Vδ1 γδ T-cells; cell surface Vδ1 TCR
T1 sequence (A0A1B0GX56 22-115 limits assumed, stated change not applied): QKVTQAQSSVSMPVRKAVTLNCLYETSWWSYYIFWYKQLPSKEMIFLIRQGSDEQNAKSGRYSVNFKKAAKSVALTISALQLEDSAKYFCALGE
Kind of test: flow cytometry binding to γδ T cells, Donor 2 (TS164); column head printed IC50 (nM), the text calls it EC50 of binding; same value in the table of FIG. 11C. In general terms: A flow cytometer gives signals particle by particle.
Experimental: (§1) (FIGS. 11A-11B) The level of binding by the V61 mAbs to two γδ T cell donors, ATS006 (FIG. 11A) and TS164 (FIG. 11B). γδ T cells were stained with varying concentrations of Vδ1 mAbs, followed by a fluorescent anti-human IgG detection antibody (xxx). All incubation steps were performed at 4° C. and mAb binding was determined using flow cytometry to measure the median level of fluorescence. Logarithmic four parameter dose-response curves were fitted using GraphPad Prism 9.
(§2) A range of target cells were assayed to determine the specificity and affinity of Vδ1 mAb binding. This included expanded skin-derived Vδ1 γδ T-cells, HEK293T cells, Raji cells, and multiple leukocyte subsets within human primary blood mononuclear cells. Adherent or semi-adherent cells (skin-derived Vδ1 γδ T-cells, HEK293T) were detached from tissue culture flask and resuspended in PBS. Similarly, non-adherent cell types (Raji, PBMC), were harvested and resuspended in PBS. Cells were seeded at a final density of 100,000 cells per well in v-bottom 96-well plates. Cells underwent centrifugation and the cell pellets were resuspended in FcR blocking reagent according to the manufacturer's instructions, and incubated for 20 minutes at 4C prior to a further wash. […] To determine the quantity of mAb bound to the cell surface, the cells were then stained with a murine anti-human IgG secondary antibody, conjugated to APC (product code . . . , dilution: 1:100). For Vδ1 γδ T-cells, HEK293T and Raji, the cells were also stained solely with a viability dye.
Usually EC50 stands for the concentration needed to bring the measured effect to its halfway point. Molecule B1 returned an EC50 of 226 nM.
The same measure, in the same setting: the same measure for B2: 2.68 nM; for B3: 196 nM.
Molecule B4 displayed an EC50 of 0.952 nM.

Another test addresses T2, L1 (DV1-GV4), recombinant soluble human Vδ1/Vγ4 γδ TCR heterodimer (human).
T2 construct: Biotinylated in the DELFIA ranking assay; also called human TRDV1; human Vδ1 antigen
Nature of the test: SPR (Reichert 4SPR): antibody on a Protein A chip, human Vδ1 antigen flowed; column 'Affinity to Vδ1 (nM)'.
Experimental: Human Vδ1 antigen was flown over the cell at a 1:3 dilution series with top concentrations of 50 nM with the following parameters: 180s association, 900s dissociation, flow rate 25 μL/min, running buffer PBS+0.05% Tween-20. The chip surface was regenerated using 20 mM phosphoric acid following each injection. All experiments were performed at room temperature. Steady state fitting was determined according to Langmuir 1:1 binding using TraceDrawer software (Reichert Technologies.
One may read the Kd as the constant that tells how readily two partners part at equilibrium. On to B5, for which the Kd amounted to 1.26 nM.
In the case of B6, the Kd was found to be 18.3 nM.

Another test has as its target T2, L1 (DV1-GV4), recombinant soluble human …. Nature of the test: SPR. Background: SPR reads the build-up and loss of mass on a sensor chip optically.
As for B7, the Kd worked out at 152 nM.
With B8, the Kd turned out to be 0.818 nM.
For the molecule B9, the Kd amounted to 0.378 nM.
Consider B10, for which the Kd is 0.464 nM.
Still for that read-out and setting: with B11 the figure was 0.511 nM; with B12, 0.462 nM.

A further test concerns the target T3, human EGFR, recombinant protein (human, UniProt P00533 25-645).
T3 construct: Bought protein; also called human EGFR antigen
Nature of the test: SPR.
On to B5, for which the Kd was 0.655 nM.
The same measure, in the same setting: the same measure for B7: 1.14 nM; for B6: 2.78 nM; for B8: 19.2 nM.
Same read-out and setting: the same measure for B9: 1.37 nM; for B10: 1.35 nM; for B11: 2.35 nM.
On the same count and under the same terms, the same measure for B12: 8.63 nM.

A further test addresses T1, Vδ1 TCR on human Vδ1-positive γδ T cells. Nature of the test: flow cytometry binding to γδ T cells, Donor 1 (ATS006); column head printed IC50 (nM), the text calls it EC50 of binding; same value in the table of FIG. 11C.
Experimental: as §1, §2
B1: the EC50 was over 100 nM.
On the same count and under the same terms, with B2 the figure was 37.2 nM; with B3, 93 nM.
On the same count and under the same terms, the same measure for B4: 5.15 nM.

The target of another test is T4, EGFR on A431 cells (human, UniProt P00533 25-1210).
T4 construct: whole, on cells; also called EGFR-positive A431; EGFR+A431 target cells
Kind of test: EGF blockade by flow cytometry: A431 cells pre-incubated with antibody 30 min at 4 C, then EGF-AF647; EGF binding MFI.
Experimental: Cells were then incubated for 1 hour at 4 degrees C., washed and stained with Live/dead dye (eFluor 520, Fisher) and incubated for a further 20 min at 4 degrees. The cells were washed in FACS buffer and resuspended in Cell Fix (BD sciences) before incubating overnight at 4° C. in the dark.
Molecule B12 had an EC50 of 8.66 nM.

The target of a further test is T1, Vδ1 TCR on human Vδ1-positive γδ T cells. Nature of the test: flow cytometry on skin-derived Vδ1+ cells, 20 min at 4 C, anti-human Fc secondary.
Experimental: Cells were washed and stained with an anti-human Fc secondary antibody (Jackson Immunoresearch) and a viability dye for dead cells (eFlour 780, Invitrogen) for 20 minutes at 4° C. The cells were washed in FACS buffer and resuspended in Cell Fix (BD sciences) before analysis on a MACSQuant Analyser 10 flow cytometer (Miltenyi).
A word on the EC95: it is the concentration at which the effect reaches the 95% level. B5 came in with an EC50 of 0.279 nM and an EC95 of 2.77 nM.
In turn, B6 returned an EC50 of 0.209 nM and an EC95 of 2.25 nM.

The next test has as its target T2, L1 (DV1-GV4), recombinant soluble human …. Kind of test: SPR (Reichert 4SPR), antibody on Protein A chip, human Vδ1 antigen as analyte, 1:1 fit, mean of two replicates (Avg KD).
Text: The binding affinity of the antibodies to target (i.e. the Vδ1 chain of a γ TCR) is established by SPR analysis using a Reichert 4SPR instrument (Reichert Technologies).
The binding interaction of Vδ1 and the affinity-matured mAbs were modelled according to Langmuir 1:1 binding.
As for B1, the Kd is 38.1 nM.
The same measure, in the same setting: the same measure for B2: 4.99 nM.
On the same count and under the same terms, with B3 the figure was 1.04 nM; with B4, 3.78 nM.

The record behind these values is patent US20240132599A1 (GAMMADELTA THERAPEUTICS, published 2024).
